Source: patent publication US20250144141A1 (CDR LIFE, published 2025)
Numbering of substitutions follows the chain as printed. Where two headings read alike, the source gives them in different places.

Assays:
[1] = target: HLA-A*02:01/MAGE-A4 displayed on T2 cells (human); test: cell-based or functional assay
[2] = target: T1, HLA-A*02:01/MAGE-A4 complex (human, UniProt P04439 25-299 at identity 0.94); P61769 21-119); test: SPR (Biacore T200), HLA-A*02:01/MAGE-A4 as ligand; sample kept in human serum at 37 C for 0, 7 and 24 h and injected after 1:100 dilution; signal relative to the start sample
T1 construct: Coated on ELISA plates and on a streptavidin SPR chip; a biotin tag is not described; also called HLA-A2/MAGE-A4 complex; pMHC-MAGE-A4

[3] = target: T1, HLA-A*02:01/MAGE-A4 complex; test: direct ELISA, plate coated with HLA-A*02:01/MAGE-A4 complex, as in Example 6
[4] = target: T1, HLA-A*02:01/MAGE-A4 complex; test: SPR (Biacore T200), HLA-A*02:01/MAGE-A4 as ligand; sample kept in human serum at 37 C for 0, 7 and 24 h and injected after 1:100 dilution; signal relative to the start sample; remark: listed apart in the source
[5] = target: T1, HLA-A*02:01/MAGE-A4 complex; test: direct ELISA, plate coated with HLA-A*02:01/MAGE-A4 complex, serial dilution of the Fab
[6] = target: T1, HLA-A*02:01/MAGE-A4 complex; test: SPR
[7] = target: T1, HLA-A*02:01/MAGE-A4 complex; test: SPR; remark: listed apart in the source

B1: M1397 (bispecific antibody)
heavy: EVQLVESGGGLVQPGGSLRLSCAASGFTFSTYAMNWVRQAPGKGLEWVGRIRSKYNNYATYYADSVKGRFTISRDDSKNTLYLQMNSLRAEDTAVYYCVRHGNFGDSYVSWFAYWGQGTLVTVSSASTKGPSVFPLAPSSKSTSGGTAALGCLVKDYFPEPVTVSWNSGALTSGVHTFPAVLQSSGLYSLSSVVTVPSSSLGTQTYICNVNHKPSNTKVDKRVEPKSCGGGGSQSVLTQDPAVSVALGQTVRITCTADTLSRSYASWYQQKPGQAPVLVIYRDTSRPSGIPDRFSGSSSGNTASLTITGAQAEDEADYYCATRPSSGSNFQAFGGGTKLTVLGGGGGSGGGGSGGGGSGGGGSEVQLLESGGGSVQPGGSLRLSCTVSGFSLSNYAMSWVRQAPGKGLEWIGIVSSGGTTYYADSVKGRFTISRDNSKNTVYLQMNSLRAEDTASYYCAKDLYYGPNTDYSAANLWGQGTSVTVSS
light: QAVVTQEPSLTVSPGGTVTLTCGSSTGAVTTSNYANWVQQKPGKSPRGLIGGTNKRAPGVPARFSGSLLGGKAALTISGAQPEDEADYYCALWYSNHWVFGGGTKLTVLGQPKAAPSVTLFPPSSEELQANKATLVCLISDFYPGAVTVAWKADSSPVKAGVETTTPSKQSNNKYAASSYLSLTPEQWKSHRSYSCQVTHEGSTVEKTVAPTECSGGGGSQSVLTQDPAVSVALGQTVRITCTADTLSRSYASWYQQKPGQAPVLVIYRDTSRPSGIPDRFSGSSSGNTASLTITGAQAEDEADYYCATRPSSGSNFQAFGGGTKLTVLGGGGGSGGGGSGGGGSGGGGSEVQLLESGGGSVQPGGSLRLSCTVSGFSLSNYAMSWVRQAPGKGLEWIGIVSSGGTTYYADSVKGRFTISRDNSKNTVYLQMNSLRAEDTASYYCAKDLYYGPNTDYSAANLWGQGTSVTVSS
notes: Fab(scFv)2 dual pMHC-targeting T cell engager, no Fc; also called dual engager M1397; dual T cell engager M1397
IFN-gamma release (T cell activation) with PBMCs and T2 cells pulsed with titrated peptide, compound at 1 nM; EC50 on the peptide concentration [1]: 5.75 nM | binding result [2]: binds

B2: M0873 (antibody, V domains shown)
VH: ESQVLESGGGSVQPGGSLRLSCTVSGFSLSNYAMSWVRQAPGKGLEYIGIVSSGGTTYYASWAKGRFTISKDTSKNTVYLQMNSLRAEDTASYYCAKDLYYGPTTYSAFNLWGQGTSVTVSS
VL: SYELTQPPSVSVSPGQTASITCTADTLSRSYASWYQQKPGQSPVLVIYRDTSRPSGIPERFSGSNSGNTATLTISGTQAMDEADYYCATSDGSGSNFQLFGGGTKLTVL
EC50 (read off the curve) [3]: ~1 nM

B3: M1403 (bispecific antibody)
heavy: EVQLVESGGGLVQPGGSLRLSCAASGFTFSTYAMNWVRQAPGKGLEWVGRIRSKYNNYATYYADSVKGRFTISRDDSKNTLYLQMNSLRAEDTAVYYCVRHGNFGDSYVSWFAYWGQGTLVTVSSASTKGPSVFPLAPSSKSTSGGTAALGCLVKDYFPEPVTVSWNSGALTSGVHTFPAVLQSSGLYSLSSVVTVPSSSLGTQTYICNVNHKPSNTKVDKRVEPKSCGGGGSSYELTQPPSVSVSPGQTASITCTADTLSRSYASWYQQKPGQSPVLVIYRDTSRPSGIPERFSGSNSGNTATLTISGTQAMDEADYYCATRPSSGSNFQAFGGGTKLTVLGGGGGGSGGGGSGGGGSGGGGSEVQLLESGGGSVQPGGSLRLSCTVSGFSLSNYAMSWVRQAPGKGLEYIGIVSSGGTTYYASWAKGRFTISRDNSKNTVYLQMNSLRAEDTASYYCAKDLYYGPTTYSAFNLWGQGTSVTVSS
light: QAVVTQEPSLTVSPGGTVTLTCGSSTGAVTTSNYANWVQQKPGKSPRGLIGGTNKRAPGVPARFSGSLLGGKAALTISGAQPEDEADYYCALWYSNHWVFGGGTKLTVLGQPKAAPSVTLFPPSSEELQANKATLVCLISDFYPGAVTVAWKADSSPVKAGVETTTPSKQSNNKYAASSYLSLTPEQWKSHRSYSCQVTHEGSTVEKTVAPTECSGGGGSSYELTQPPSVSVSPGQTASITCTADTLSRSYASWYQQKPGQSPVLVIYRDTSRPSGIPERFSGSNSGNTATLTISGTQAMDEADYYCATRPSSGSNFQAFGGGTKLTVLGGGGGGSGGGGSGGGGSGGGGSEVQLLESGGGSVQPGGSLRLSCTVSGFSLSNYAMSWVRQAPGKGLEYIGIVSSGGTTYYASWAKGRFTISRDNSKNTVYLQMNSLRAEDTASYYCAKDLYYGPTTYSAFNLWGQGTSVTVSS
notes: Fab(scFv)2 dual pMHC-targeting T cell engager, no Fc; also called dual engager M1403
binding result [4]: binds

B4: M0702 (Fab, V domains shown)
VH: QEQLEESGGGLVTPGTPLTLTCTASGFSLSSYAMIWVRQAPGKGLEWIGTINDGGTAFYANWVKGRFTISRTSTTVDLKMTSPTTEDTATYFCARAYGSNGDVYWGYVNLWGQGTLVTVSS
VL: ELVMTQTPASVSEPVGGTVTIKCQASQSIGSNLAWYQQKPGQPPKLLIYAAANLASGVSSRFKGSRSGTEYTLTISGVQAADAATYYCQQGYSSSNVANVFGGGTELEILR
EC50 (read off the curve) [5]: ~0.6 nM

B5: M1067 (bispecific antibody)
chain 1: SYELTQPPSVSVSPGQTASITCTADTLSRSYASWYQQKPGQSPVLVIYRDTSRPSGIPERFSGSNSGNTATLTISGTQAMDEADYYCATRPSSGSNFQLFGGGTKLTVLGGGGGGSGGGGSGGGGSGGGGSEVQLLESGGGSVQPGGSLRLSCTVSGFSLSNYAMSWVRQAPGKGLEYIGIVSSGGTTYYASWAKGRFTISKDTSKNTVYLQMNSLRAEDTASYYCAKDLYYGPTTYSAFNLWGQGTSVTVSS
chain 2: EVQLVESGGGLVQPGGSLRLSCAASGFTFSTYAMNWVRQAPGKGLEWVGRIRSKYNNYATYYADSVKGRFTISRDDSKNTLYLQMNSLRAEDTAVYYCVRHGNFGDSYVSWFAYWGQGTLVTVSSASTKGPSVFPLAPSSKSTSGGTAALGCLVKDYFPEPVTVSWNSGALTSGVHTFPAVLQSSGLYSLSSVVTVPSSSLGTQTYICNVNHKPSNTKVDKRVEPKSC
chain 3: QAVVTQEPSLTVSPGGTVTLTCGSSTGAVTTSNYANWVQQKPGKSPRGLIGGTNKRAPGVPARFSGSLLGGKAALTISGAQPEDEADYYCALWYSNHWVFGGGTKLTVLGQPKAAPSVTLFPPSSEELQANKATLVCLISDFYPGAVTVAWKADSSPVKAGVETTTPSKQSNNKYAASSYLSLTPEQWKSHRSYSCQVTHEGSTVEKTVAPTECS
Kd [6]: 0.12 nM

B6: M1068 (bispecific antibody)
chain 1: B5 chain 1 with Y178W
chain 2: B5 chain 2
chain 3: B5 chain 3
Kd [7]: 1 nM

B7: M1312 (bispecific antibody)
chain 1: SSELTQDPAVSVALGQTVRITCTADTLSRSYASWYQQKPGQAPVLVIYRDTSRPSGIPDRFSGSSSGNTASLTITGAQAEDEADYYCATRPSSGSNFQLFGGGTKLTVLGGGGGSGGGGSGGGGSGGGGSEVQLLESGGGSVQPGGSLRLSCTVSGFSLSNYAMSWVRQAPGKGLEWIGIVSSGGTTYYASWAKGRFTISKDTSKNTVYLQMNSLRAEDTASYYCAKDLYYGPNTDYSAANLWGQGTSVTVSS
chain 2: B5 chain 2
chain 3: B5 chain 3
Kd [7]: 0.8 nM

B8: M1394 (bispecific antibody)
chain 1: B7 chain 1 with K201R, T203N
chain 2: B5 chain 2
chain 3: B5 chain 3
Kd [7]: 1.4 nM
